The results in this text go back to the supplement of paper PMC10567573.

Sequences and labels used below:
B1: FCHSD1 (parent)
chain: LEAAEVILEHAHRGEQTTSQVSWE
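Note: lentivirally expressed fusions sorted by FACS into six bins by GFP to DsRed ratio, PSI derived from sequencing read proportions per bin multiplied by bin number.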

Variants of B1 are the subject of the data set. Briefly: protein stability index of a GFP-peptide fusion (GPS, HEK-293T) (PSI 1-6); higher = more stable. The conditions noted are these: c terminus: a fixed tail appended.
Take LEAAEVILEHAHNGEQTTSQVSWE: the protein stability index amounted to 4.63.

For the variant LEAAEVILEHAHAGEQTTSQVSWE, the protein stability index was 4.58.

As for LEAAEVILEHAHIGEQTTSQVSWE, the protein stability index is 4.11.

In the case of LEAAEVILEHAHCGEQTTSQVSWE, the protein stability index was determined as 3.5.

In the case of LEAAEVILEHAHLGEQTTSQVSWE, the protein stability index amounted to 4.13.

Take LEAAEVILEHAHMGEQTTSQVSWE: the protein stability index was determined as 4.27.

Take LEAAEVILEHAHSGEQTTSQVSWE: the protein stability index came to 4.24.

For the variant LEAAEVILEHAHPGEQTTSQVSWE, the protein stability index was found to be 4.9.

For the variant LEAAEVILEHAHQGEQTTSQVSWE, the protein stability index is 4.41.

Regarding LEAAEVILEHAHHGEQTTSQVSWE, the protein stability index came to 4.6.

As to LEAAEVILEHAHKGEQTTSQVSWE, the protein stability index was 4.1.

LEAAEVILEHAHGGEQTTSQVSWE: the protein stability index was 5.25.

Consider LEAAEVILEHAHTGEQTTSQVSWE, for which the protein stability index is 4.58.

Regarding LEAAEVILEHAHYGEQTTSQVSWE, the protein stability index is 3.44.

With LEAAEVILEHAHWGEQTTSQVSWE, the protein stability index was found to be 3.27.

As for LEAAEVILEHAHVGEQTTSQVSWE, the protein stability index amounted to 4.93.

LEAAEVILEHAHDGEQTTSQVSWE: the protein stability index was 4.67.

In the case of LEAAEVILEHHHRGEQTTSQVSWE, the protein stability index was 4.05.

On to LEAAEVILEHQHRGEQTTSQVSWE, for which the protein stability index came out at 4.11.

Consider LEAAEVILEHSHRGEQTTSQVSWE, for which the protein stability index turned out to be 4.12.

On to LEAAEVILEHNHRGEQTTSQVSWE, for which the protein stability index was 4.18.

LEAAEVILEHWHRGEQTTSQVSWE: the protein stability index was determined as 3.23.

On to LEAAEVILEHYHRGEQTTSQVSWE, for which the protein stability index worked out at 3.47.

With LEAAEVILEHLHRGEQTTSQVSWE, the protein stability index came to 4.77.

On to LEAAEVILEHVHRGEQTTSQVSWE, for which the protein stability index turned out to be 4.54.

As for LEAAEVILEHTHRGEQTTSQVSWE, the protein stability index came to 3.04.

Regarding LEAAEVILEHRHRGEQTTSQVSWE, the protein stability index turned out to be 4.71.

Regarding LEAAEVILEHCHRGEQTTSQVSWE, the protein stability index came to 4.14.

LEAAEVILEHPHRGEQTTSQVSWE: the protein stability index was determined as 5.38.

With LEAAEVILEHGHRGEQTTSQVSWE, the protein stability index stood at 4.14.

As to LEAAEVILEHDHRGEQTTSQVSWE, the protein stability index was 4.97.

Take LEAAEVILEHFHRGEQTTSQVSWE: the protein stability index is 3.27.

On to LEAAEVILEHMHRGEQTTSQVSWE, for which the protein stability index was 4.46.

As for LEAAEVILEHIHRGEQTTSQVSWE, the protein stability index is 3.33.

For LEAAEVILEHEHRGEQTTSQVSWE, the protein stability index amounted to 4.69.

With LEAAEVILEHAHRGEQVTSQVSWE, the protein stability index is 4.37.

On to LEAAEVILEHAHRGEQSTSQVSWE, for which the protein stability index is 4.77.

As to LEAAEVILEHAHRGEQYTSQVSWE, the protein stability index is 3.32.

Turning to LEAAEVILEHAHRGEQGTSQVSWE, the protein stability index was found to be 4.84.

In the case of LEAAEVILEHAHRGEQLTSQVSWE, the protein stability index was 2.78.

For LEAAEVILEHAHRGEQQTSQVSWE, the protein stability index was 4.51.

Turning to LEAAEVILEHAHRGEQATSQVSWE, the protein stability index came to 4.2.

In the case of LEAAEVILEHAHRGEQCTSQVSWE, the protein stability index worked out at 4.51.

With LEAAEVILEHAHRGEQPTSQVSWE, the protein stability index was found to be 4.14.

Turning to LEAAEVILEHAHRGEQNTSQVSWE, the protein stability index amounted to 4.39.

For the variant LEAAEVILEHAHRGEQHTSQVSWE, the protein stability index came out at 3.99.

As to LEAAEVILEHAHRGEQMTSQVSWE, the protein stability index came to 3.85.

For the variant LEAAEVILEHAHRGEQETSQVSWE, the protein stability index turned out to be 5.06.

As for LEAAEVILEHAHRGEQWTSQVSWE, the protein stability index was 3.54.

Turning to LEAAEVILEHAHRGEQTSSQVSWE, the protein stability index was found to be 4.41.

In the case of LEAAEVILEHAHRGEQTNSQVSWE, the protein stability index stood at 3.69.

Turning to LEAAEVILEHAHRGEQTESQVSWE, the protein stability index stood at 4.2.

For LEAAEVILEHAHRGEQTGSQVSWE, the protein stability index worked out at 4.38.

LEAAEVILEHAHRGEQTYSQVSWE: the protein stability index is 3.21.

On to LEAAEVILEHAHRGEQTWSQVSWE, for which the protein stability index stood at 2.7.

Consider LEAAEVILEHAHRGEQTFSQVSWE, for which the protein stability index came to 2.98.

As for LEAAEVILEHAHRGEQTISQVSWE, the protein stability index amounted to 3.65.

As for LEAAEVILEHAHRGEQTCSQVSWE, the protein stability index was determined as 4.45.

For the variant LEAAEVILEHAHRGEQTRSQVSWE, the protein stability index was determined as 3.93.

For the variant LEAAEVILEHAHRGEQTLSQVSWE, the protein stability index is 4.11.

As to LEAAEVILEHAHRGEQTASQVSWE, the protein stability index turned out to be 3.72.

Take LEAAEVILEHAHRGEQTMSQVSWE: the protein stability index was found to be 3.59.

For the variant LEAAEVILEHAHRGEQTHSQVSWE, the protein stability index was 4.09.

With LEAAEVILEHAHRGEQTPSQVSWE, the protein stability index came out at 4.33.

Consider LEAAEVILEHAHRGEQTVSQVSWE, for which the protein stability index worked out at 3.88.

With LEAAEVILEHAHRGEQTKSQVSWE, the protein stability index came to 4.54.

LEAAEVILEHAHRGEQTDSQVSWE: the protein stability index stood at 4.74.

LEAAEVILEHAHRGEQTQSQVSWE: the protein stability index came to 3.21.

For the variant LEAAEVICEHAHRGEQTTSQVSWE, the protein stability index was 4.93.

With LEAAEVIFEHAHRGEQTTSQVSWE, the protein stability index came to 4.

LEAAEVIAEHAHRGEQTTSQVSWE: the protein stability index was found to be 4.96.

For the variant LEAAEVIYEHAHRGEQTTSQVSWE, the protein stability index is 4.42.

As to LEAAEVISEHAHRGEQTTSQVSWE, the protein stability index amounted to 5.37.

LEAAEVIPEHAHRGEQTTSQVSWE: the protein stability index was found to be 5.65.

In the case of LEAAEVIDEHAHRGEQTTSQVSWE, the protein stability index was 5.35.

Take LEAAEVIMEHAHRGEQTTSQVSWE: the protein stability index came out at 4.46.

Consider LEAAEVIIEHAHRGEQTTSQVSWE, for which the protein stability index was determined as 4.46.

For the variant LEAAEVIKEHAHRGEQTTSQVSWE, the protein stability index is 4.98.

On to LEAAEVIEEHAHRGEQTTSQVSWE, for which the protein stability index came out at 5.09.

Turning to LEAAEVIREHAHRGEQTTSQVSWE, the protein stability index was 4.92.

As to LEAAEVIHEHAHRGEQTTSQVSWE, the protein stability index turned out to be 4.74.

On to LEAAEVIQEHAHRGEQTTSQVSWE, for which the protein stability index came out at 5.5.

On to LEAAEVIGEHAHRGEQTTSQVSWE, for which the protein stability index was 5.23.

As for LEAAEVIVEHAHRGEQTTSQVSWE, the protein stability index was found to be 4.83.

On to LEAAEVITEHAHRGEQTTSQVSWE, for which the protein stability index turned out to be 5.09.

On to LEAAEVIWEHAHRGEQTTSQVSWE, for which the protein stability index amounted to 4.31.

Turning to LEAAEVILEHAIRGEQTTSQVSWE, the protein stability index worked out at 4.25.

On to LEAAEVILEHAFRGEQTTSQVSWE, for which the protein stability index was 2.87.

Consider LEAAEVILEHASRGEQTTSQVSWE, for which the protein stability index came out at 4.77.

LEAAEVILEHAPRGEQTTSQVSWE: the protein stability index was found to be 4.43.

LEAAEVILEHAYRGEQTTSQVSWE: the protein stability index turned out to be 4.09.

For the variant LEAAEVILEHAARGEQTTSQVSWE, the protein stability index came to 4.23.

LEAAEVILEHAMRGEQTTSQVSWE: the protein stability index amounted to 3.79.

Regarding LEAAEVILEHANRGEQTTSQVSWE, the protein stability index was 4.55.
